Experimental data: paper PMC10078426 (2022)

Molecular target: human IgG from serum (human, UniProt P01857 = IgG part)
Test: SPR

B1: protein G only (natural protein)
chain: VDSPIEDTPIIRNGGELTNLLGNSETTLALRNEESATADLTAAAVADTVAAAAAENAGAAAWEAAAAADALAKAKADALKEFNKYGVSDYYKNLINNAKTVEGVKDLQAQVVESAKKARISEATDGLSDFLKSQTPAEDTVKSIELAEAKVLANRELDKYGVSDYHKNLINNAKTVEGVKDLQAQVVESAKKARISEATDGLSDFLKSQTPAEDTVKSIELAEAKVLANRELDKYGVSDYYKNLINNAKTVEGVKALIDEILAALPKTDTYKLILNGKTLKGETTTEAVDAATAEKVFKQYANDNGVDGEWTYDDATKTFTVTEKPEVIDASELTPAVTTYKLVINGKTLKGETTTEAVDAATAEKVFKQYANDNGVDGEWTYDDATKTFTVTEKPEVIDASELTPAVTTYKLVINGKTLKGETTTKAVDAETAEKAFKQYANDNGVDGVWTYDDATKTFTVTEMVTEVPGDAPTEPEKPEASIPLVPLTPATPIAKDDAKKDDTKKEDAKKPEAKKEDAKKAETLPTT
Kd: 35.6 nM
